The Kd is a measure of binding affinity in units of concentration. Usually koff stands for the rate constant with which the complex falls apart. The kon is the rate constant with which the complex forms. Broadly, the EC50 is the concentration that produces a half-maximal response.

This note sets out measurements from patent publication US20250179196A1 (Janssen / Centocor, published 2025).

Experiment [1] has as its target T1, rat IL-23R extracellular domain (ECD) protein (rat).
T1 construct: also called rat IL-23R ECD; F1LX96 amino acids 24-354
T1 chain: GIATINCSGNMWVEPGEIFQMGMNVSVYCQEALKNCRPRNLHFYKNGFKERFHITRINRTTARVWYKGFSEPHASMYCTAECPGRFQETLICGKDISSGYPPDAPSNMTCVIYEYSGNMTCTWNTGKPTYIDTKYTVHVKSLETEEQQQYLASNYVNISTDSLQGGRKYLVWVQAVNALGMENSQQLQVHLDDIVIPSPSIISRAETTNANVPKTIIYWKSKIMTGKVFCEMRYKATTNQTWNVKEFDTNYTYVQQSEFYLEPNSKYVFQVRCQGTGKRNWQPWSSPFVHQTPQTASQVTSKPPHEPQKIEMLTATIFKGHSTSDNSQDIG
Nature of the experiment: SPR Biacore 8K, purified. On the procedure: (§1) Affinity by SPR using Biacore 8K. Affinity measurements using Surface Plasmon Resonance (SPR) were performed using a Biacore 8K system (Cytiva). […] Approximately 9000-10000 RU (response units) of mAbs were immobilized. The kinetic experiments were performed at 25° C. in running buffer 1× of (HBS-P+ Buffer 10× (Cytiva #BR100671)+100 μg/ml BSA). To perform kinetic experiments, approximately 150 RU of mAbs were captured followed by injections of human IL-23R or rat IL-23R at concentrations ranging from 0.8 nM to 500 nM (in a 5-fold serial dilution). The association phase was monitored for 3 minutes at 50 μL/min, then followed by 30 minutes of buffer flow (dissociation phase). […] The collected data were processed using Biacore insight Evaluation software (Version 3.0.12.15655). The kinetic analysis of the data was performed using a Langmuir 1:1 binding model. The result for each mAb was reported in the format of Ka (On-rate), Kd (Off-rate) and KD (equilibrium dissociation constant).
(In SPR one partner is held on a chip, and binding of the other changes the refractive index at the surface.)

Experiment [2] deals with T2, Recombinant human IL-23 receptor (IL-23R) extracellular domain (ECD) protein (human, UniProt Q5VWK5 24-355).
T2 construct: also called human IL-23R ECD; hu IL-23R ECD
T2 sequence: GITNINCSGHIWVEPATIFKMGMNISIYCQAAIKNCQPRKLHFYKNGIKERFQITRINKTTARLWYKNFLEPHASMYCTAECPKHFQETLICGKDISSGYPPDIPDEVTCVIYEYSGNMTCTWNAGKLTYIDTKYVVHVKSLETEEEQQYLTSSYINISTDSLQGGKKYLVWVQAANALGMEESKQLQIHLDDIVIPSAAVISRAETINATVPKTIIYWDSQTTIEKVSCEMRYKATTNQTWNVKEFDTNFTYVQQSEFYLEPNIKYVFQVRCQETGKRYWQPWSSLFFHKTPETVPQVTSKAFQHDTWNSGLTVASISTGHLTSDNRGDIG
As to the kind of experiment: SPR Biacore 8K, purified, analysis 1. On the procedure: as §1

Experiment [3] addresses T2, Recombinant human IL-23 receptor …. As to the kind of experiment: SPR Biacore 8K, purified, analysis 2. On the procedure: as §1
For experiment [4] the target is unchanged. As to the kind of experiment: SPR Biacore 8K, supernatant, analysis 2. Summed up:
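Antibodies (~150 RU) were captured and human or rat IL-23R ECD injected at 0.8–500 nM in 5-fold steps, at 25 °C in HBS-P+ with 100 μg/ml BSA. Association ran 3 min at 50 μL/min, followed by 30 min dissociation. Ka, Kd and KD came from a Langmuir 1:1 fit.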

Experiment [5] addresses T3, human IL-23R extracellular domain (ECD) protein (human, UniProt Q5VWK5 24-355).
T3 construct: Recombinant ECD; also called hu IL-23R ECD
T3 sequence: T2 sequence
As to the kind of experiment: column 'Affinity to hu IL-23R ECD' (summary of SPR data).

The target in experiment [6] is T4, human IL-23R expressed on the cell surface of stably transfected iLite and HEK cell lines (human, UniProt Q5VWK5 24-629).
T4 construct: whole, on cells; Same receptor on two transfected cell lines; the cell line is named under assay; also called human IL-23R iLite cells; human IL-23R HEK cells
T4 sequence (looked up): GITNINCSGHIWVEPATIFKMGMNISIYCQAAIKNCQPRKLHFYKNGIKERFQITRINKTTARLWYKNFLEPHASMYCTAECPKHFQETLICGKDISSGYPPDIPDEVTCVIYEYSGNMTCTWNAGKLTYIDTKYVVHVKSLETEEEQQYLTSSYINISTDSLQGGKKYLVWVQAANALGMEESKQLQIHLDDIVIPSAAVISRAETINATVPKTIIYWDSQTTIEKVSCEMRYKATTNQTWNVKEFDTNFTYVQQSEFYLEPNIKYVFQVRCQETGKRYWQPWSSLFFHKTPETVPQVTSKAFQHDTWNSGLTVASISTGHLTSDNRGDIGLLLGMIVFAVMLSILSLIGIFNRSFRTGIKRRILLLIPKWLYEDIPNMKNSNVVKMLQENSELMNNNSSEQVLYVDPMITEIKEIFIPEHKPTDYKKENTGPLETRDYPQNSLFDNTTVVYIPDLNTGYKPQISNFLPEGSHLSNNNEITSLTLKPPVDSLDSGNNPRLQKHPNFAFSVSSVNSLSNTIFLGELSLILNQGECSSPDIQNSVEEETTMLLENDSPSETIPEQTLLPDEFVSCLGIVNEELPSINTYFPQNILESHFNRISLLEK
Nature of the experiment: flow cytometry on human IL-23R HEK cells, Expt D (8-point, 96well). Summed up:
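Serially diluted IL-23R mAbs bound to mixed HEK-IL-23R and parental HEK cells for 30 min at 37 °C, in duplicate. After washes, 647 detection antibody geometric MFI measured on single viable (Sytox Green-negative) cells and fitted to a variable-slope dose-response against log mAb concentration.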
A general note: A flow cytometer gives signals particle by particle.

In experiment [7] the target is T4, human IL-23R expressed on the cell …. Nature of the experiment: flow cytometry on human IL-23R HEK cells, Expt E (11-point, 384well). Summed up:
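Antibody bound to HEK-IL-23R cells 30 min at 37 °C over 11 concentrations; after washes, Sytox Green added and cells run on iQue. Geometric MFI of 647 detection antibody on single viable cells fitted by variable-slope dose–response.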

Experiment [8] deals with T2, Recombinant human IL-23 receptor …. Nature of the experiment: SPR ProteOn, purified. On the procedure: Affinity by SPR using ProteOn. Affinity measurements using Surface Plasmon Resonance (SPR) were performed using a ProteOn XPR36 system (BioRad). […] Approximately 6000 RU (response units) of mAbs were immobilized. The kinetic experiments were performed at 25° C. in running buffer (DPBS+0.01% P20+100 μg/ml BSA). […] The association phase was monitored for 3 minutes at 50 μL/min, then followed by 10 minutes of buffer flow (dissociation phase). The chip surface was regenerated with two 18 second pulses of 100 mM H3PO4 (Sigma, Cat #7961) at 100 μL/min. The collected data were processed using ProteOn Manager software. First, the data was corrected for background using inter-spots. Then, double reference subtraction of the data was performed by using the buffer injection for analyte injections. The kinetic analysis of the data was performed using a Langmuir 1:1 binding model. The result for each mAb was reported in the format of Ka (On-rate), Kd (Off-rate) and KD (equilibrium dissociation constant).

B1: I23RB35 (antibody, mouse IgG2a, kappa, V domains shown)
VH: DVQLQESGPGLVKPSQSLSLTCSVTGYSITSGHNWNWIRQFPGNKLEWLGYISYDGSNNYDPSLKNRISITRDTSKNQFFLKLNSVTTEDTATYYCARGGGYFGNSYRVFASWGQGTTVTVSS
VL: DIVLTQSPASLAVSLGQRATISCRASESVDSYGNSFMHWYQQKPGQPPKLLIYRASNLESEIPARFSGRGSGTDFTLTINPVEADDVATYYCQQSNADPYTFGGGTKLEIKR
notes: mouse immunization; mouse IgG2a/kappa
As to B1, in experiment [1], the binding result is recorded as “no binding (tested: 500 nM)”. Also, in experiment [2], the Kd was under 0.0527 nM, the off-rate (koff) was under 2.89e-05 s⁻¹ and the on-rate constant (kon) stood at 549000 M⁻¹ s⁻¹. Further, in experiment [3], the Kd was under 0.0687 nM, the koff was under 2.89e-05 s⁻¹ and the kon turned out to be 421000 M⁻¹ s⁻¹. Also, in experiment [4], the Kd is under 0.0777 nM, the off-rate constant (koff) is under 2.89e-05 s⁻¹ and the kon is 372000 M⁻¹ s⁻¹.

B2: I23RB33 (antibody, mouse IgG2a, kappa, V domains shown)
VH: EVQLQQSGAELVKPGASVKLSCTASGFNIRDIYIHWVKQRPEQGLEWIGRIDPANGHSIYAAKFQGKATITADTSLNIAYMQLSSLTSGDTAVYYCARGSDNDYGRVLAYWGLGTSVTVSS
VL: DIVLTQSPAIMSASPGEKVTMTCRASSSVRSSYLHWYQQKSGASPKLWIYSTSNLASGVPARFSGSGSGTSYSLTITSVEAEDAATYYCQQYTGNPIFTFGSGTKLELKR
notes: as for B1
With B2, in experiment [1], the binding result was “no binding (tested: 500 nM)”. Further, in experiment [2], the Kd is 0.162 nM, the koff stood at 0.000155 s⁻¹ and the kon was 957000 M⁻¹ s⁻¹. Besides, in experiment [3], the Kd is 0.216 nM, the off-rate constant (koff) stood at 0.000149 s⁻¹ and the on-rate (kon) was 691000 M⁻¹ s⁻¹. Further, in experiment [4], the Kd stood at 0.218 nM, the koff amounted to 0.000146 s⁻¹ and the kon came out at 672000 M⁻¹ s⁻¹.

B3: I23RB42 (antibody, mouse IgG2a, kappa, V domains shown)
VH: EVQLQQSGAELVKPGASVKISCKASGYSFTDYIMNWVKQSHGKSLEWIGNINPYFGFTSYNQEFKGKATLTVDKSSSTAYMLLNSLTSEDSAVYYCSRGSYYGYETFFDYWGQGTTLTVSS
VL: DIVLTQTAPSVPVTPGESVSISCRSSKSLLHSNGNTYLYWFLQRPGQSPQLLIYRMSNLASGVPDRFSGSGSGTAFTLRISRVEAEDVGVYYCMQHLEYPYTFGSGTRLEIKR
notes: immunization; mouse IgG2a/kappa
Take B3: the Kd in experiment [5] was at most 0.1 nM. In addition, a half-maximal effect in experiment [6] (EC50) was put at 0.2 nM. In experiment [7], the EC50 amounted to 3.1 nM and the “MFI (6.4 nM)” value was determined as 353000 MFI.

B4: I23RB318 (antibody, mouse IgG2a, kappa, V domains shown)
VH: QVQLVQSGAEVKKPGSSVKVSCKASGGTFSSYAISWVRQAPGQGLEWMGGIIPIFGTANYAQKFQGRVTITADESTSTAYMELSSLRSEDTAVYYCARVRARHRGSFDYWGQGTLVTVSS
VL: DIQMTQSPSSLSASVGDRVTITCRASQSIDRWLNWYQQKPGKAPKLLIYYASSLQSGVPSRFSGSGSGTDFTLTISSLQPEDFATYYCQQSYSTPLTFGQGTKVEIKR
notes: phage display; human V, mouse IgG2a/kappa
For the molecule B4, binding in experiment [5] was characterised by a dissociation constant (Kd) of 21 nM. Besides, the 50% effective concentration (EC50) in experiment [6] stood at 0.5 nM. For the same molecule, in experiment [7], a half-maximal response (EC50) required 7.1 nM and the “MFI (6.4 nM)” value amounted to 196000 MFI.

B5: I23RB7 (antibody, mouse IgG2a, kappa, V domains shown)
VH: QIQLVQSGPELKKPGETVKISCKASGYTFTTYGMSWVKQAPGKGLKWMGWINTYSGVPTYADDFKGRFAFSLETSASTAYLQINNLKNEDTATYYCARRDRYGYVAGAFAYWGQGTLVTVSS
VL: QIVLTQSPAIMSASPGEKVTMTCSASSSVSYMYWYQQKPGSSPRLLIYDTSNLASGVPVRFSGSGSGTSYSLTISRMEAEDAATYYCQQWSSYPWTFGGGTKLEIKR
notes: phage display (mouse library); mouse antibody, mouse IgG2a/kappa
As for B5, the Kd in experiment [8] amounted to 0.39 nM; in experiment [1], 524 nM; in experiment [3], 1.23 nM; in experiment [4], 1.23 nM. Also, the koff in experiment [8] is 0.000226 s⁻¹; in experiment [1] it was 0.0127 s⁻¹; in experiment [3], 0.000246 s⁻¹; in experiment [4], 0.000247 s⁻¹. Further, the kon stood at 581000 M⁻¹ s⁻¹ in experiment [8], 24200 M⁻¹ s⁻¹ in experiment [1], 199000 M⁻¹ s⁻¹ in experiment [3] and 200000 M⁻¹ s⁻¹ in experiment [4].

B6: I23RB1 (antibody, mouse IgG2a, kappa, V domains shown)
VH: QVQLVQSGAEVKKPGSSVKVSCKASGGTFKNYAISWVRQAPGQGLEWMGWIRPIFGTAYYAQKFQGRVTITADESTSTAYMELSSLRSEDTAVYYCARDSGSRYAGRYAFDYWGQGTLVTVSS
VL: EIVLTQSPATLSLSPGERATLSCRASQSVSSYLAWYQQKPGQAPRLLIYDASNRATGIPARFSGSGSGTDFTLTISSLEPEDFAVYYCQQRSNWPLTFGQGTKVEIKR
notes: phage display; human V regions, mouse IgG2a/kappa constant regions
Regarding B6, the dissociation constant Kd in experiment [8] was 0.667 nM; in experiment [2], 2.8 nM; in experiment [4], 2.62 nM. Besides, the values for the koff in experiment [8], in experiment [2] and in experiment [4] were 0.00229 s⁻¹, 0.00111 s⁻¹ and 0.000982 s⁻¹, respectively. Moreover, the association rate constant (kon) turned out to be 3.45e+06 M⁻¹ s⁻¹ in experiment [8], 399000 M⁻¹ s⁻¹ in experiment [2] and 376000 M⁻¹ s⁻¹ in experiment [4]. The binding result in experiment [1] is listed as “no binding (tested: 500 nM)”.
